Measured values as given in paper PMC3142331.
pKi: −log10 of the molar value.

Target: Mce1-(227–567) protein, RNA guanylyltransferase (GTase) domain of mouse mammalian capping enzyme (mouse) (UniProt O55236)
Test: fluorescence polarisation

Sequence of Mce1-(227–567) protein, RNA guanylyltransferase (GTase) domain of mouse mammalian capping enzyme (mouse) (O55236 227-567): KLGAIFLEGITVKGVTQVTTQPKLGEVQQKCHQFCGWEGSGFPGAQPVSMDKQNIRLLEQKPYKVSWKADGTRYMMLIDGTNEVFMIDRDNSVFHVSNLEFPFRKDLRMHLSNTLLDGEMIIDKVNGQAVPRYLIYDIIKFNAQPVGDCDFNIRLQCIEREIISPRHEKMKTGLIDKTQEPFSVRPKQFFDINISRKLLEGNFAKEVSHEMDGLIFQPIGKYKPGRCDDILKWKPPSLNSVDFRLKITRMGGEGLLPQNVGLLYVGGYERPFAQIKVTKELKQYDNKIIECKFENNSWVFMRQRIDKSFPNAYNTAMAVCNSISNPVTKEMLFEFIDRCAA

pKi: 3.80
Substance: unlabeled 11 aa phosphorylated CTD peptide (S2P3T4S5PP6S7Y1S2PP3T4S5)
